This test deals with isoform CBd of the basic phospholipase A2 (PLA2) subunit of crotoxin (Crotalus durissus terrificus). Description: crystal structure.

The values that follow come from PMC7696373.

For orientation: stoichiometry N means the number of molecules, sites or subunits per partner or assembly. Turning to “isoform CBd of the basic phospholipase A2 (PLA2) subunit of crotoxin (enzyme)”, the stoichiometry N was found to be 4.
